Results reported in article PMC10567574, “piRNA processing by a trimeric Schlafen-domain nuclease” (Nature, 2023).

B2: TOFU-6 eTUDOR domain (residues 119-314) (domain or fragment, C. elegans, UniProt Q09293 119-314, looked up)
chain: VLLSSSWLPLNKDIEVEVVDYLPSSSVAPDLFALTLLRINDSSMKEKYDSMHEKMNAYAQIVPFDSELEIGYDGVFRDAPRSVRRVRRISATKLYLVDFGKIINYEKAKCFQLPKVFQSMPTRVSLCGLDGLTWSPVAIPSFDNIREVVKKWGQMENSTLHAMACGFQGSINMINLFCGKSILADRLQRKGVCEYL
notes: TOFU-6, C. elegans, eTUDOR domain, residues 119-314; also called extended TUDOR domain of TOFU-6

Assays:
Conditions in all cases: both partners purified
MBP-TOFU-6^eTUDOR domain = biological target: T1, MBP-TOFU-6^eTUDOR domain (C. elegans, UniProt Q09293 119-314); test: pull-down; purified MBP-TOFU-6^eTUDOR constructs as bait (MBP pull-down) and GST-tagged TOFU-1 constructs as bait (GST pull-down); 20 mM Tris/HCl pH 7.5, 150 mM NaCl, 10% glycerol, 0.05% NP40, 1 mM DTT; SDS-PAGE with Coomassie staining
T1 construct: TOFU-6, C. elegans, eTUDOR domain (residues 119-314 as stated for TOFU-6^eTUDOR); source: purified recombinant
T1 sequence (looked up): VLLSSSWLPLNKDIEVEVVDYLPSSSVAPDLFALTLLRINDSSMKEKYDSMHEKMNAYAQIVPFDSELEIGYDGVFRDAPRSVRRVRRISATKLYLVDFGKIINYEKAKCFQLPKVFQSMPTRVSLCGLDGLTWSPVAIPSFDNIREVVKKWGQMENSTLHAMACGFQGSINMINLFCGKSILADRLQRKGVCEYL

MBP-tagged TOFU-1^82-373 = biological target: T2, MBP-tagged TOFU-1^82-373 (C. elegans, UniProt O17608 82-373); test: pull-down; purified MBP-tagged TOFU-1 as bait on amylose beads, incubated with excess prey; 20 mM Tris/HCl pH 7.5, 150 mM NaCl, 10% glycerol, 0.05% NP40, 1 mM DTT; SDS-PAGE with Coomassie staining
T2 construct: TOFU-1 (SLFL-1), C. elegans, residues 82-373; source: E. coli BL21(DE3) derivative, purified; not shown: MBP, N-terminal, kept
T2 sequence (looked up): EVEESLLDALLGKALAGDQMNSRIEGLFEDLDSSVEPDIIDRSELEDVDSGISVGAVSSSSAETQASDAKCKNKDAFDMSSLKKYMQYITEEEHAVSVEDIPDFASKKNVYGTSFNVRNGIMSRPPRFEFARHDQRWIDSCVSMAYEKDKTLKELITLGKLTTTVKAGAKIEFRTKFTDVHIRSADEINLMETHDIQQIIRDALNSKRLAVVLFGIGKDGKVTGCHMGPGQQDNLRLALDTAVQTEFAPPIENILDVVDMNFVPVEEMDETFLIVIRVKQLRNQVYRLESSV

[1] = biological target: B2; test: SEC; purified proteins alone or mixed at 20-40 uM, 1 h on ice; Superdex 200 Increase 3.2/300 in 20 mM Tris/HCl pH 7.5, 150 mM NaCl, 2 mM DTT; elution volumes compared, peak fractions on SDS-PAGE
TOFU-6^eTUDOR V266E = biological target: T3, TOFU-6^eTUDOR V266E (C. elegans, UniProt Q09293 119-314, V266E); test: as above
T3 construct: TOFU-6, C. elegans, eTUDOR domain (residues 119-314 as stated for TOFU-6^eTUDOR) with V266E; source: purified recombinant
T3 sequence (looked up): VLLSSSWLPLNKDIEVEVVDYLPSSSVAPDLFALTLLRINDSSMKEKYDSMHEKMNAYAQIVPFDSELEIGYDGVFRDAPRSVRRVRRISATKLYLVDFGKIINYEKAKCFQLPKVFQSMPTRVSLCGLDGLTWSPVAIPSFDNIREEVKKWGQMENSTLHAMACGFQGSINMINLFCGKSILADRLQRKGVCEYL

[2] = biological target: B2; test: ITC; TOFU-6^eTUDOR (injectant, 400-450 uM) titrated into TOFU-1^W-82-113 (cell, 45-48 uM); 25 C; 20 mM Tris, 250 mM NaCl, 0.5 mM TCEP, pH 7.50; mean of three experiments

B1: GST-tagged TOFU-1^82-113 (peptide, UniProt O17608 82-113, looked up)
chain: EVEESLLDALLGKALAGDQMNSRIEGLFEDLD
notes: also called TOFU-1^pep; source: purified recombinant; not shown: GST, N-terminal, kept
Question: Does B1 bind (MBP-TOFU-6^eTUDOR domain)?
Answer: Result: binds

Question: Does B2 bind (MBP-tagged TOFU-1^82-373)?
Answer: Result: binds

B3: TOFU-1^82-172 (domain or fragment, C. elegans, UniProt O17608 82-172, looked up)
chain: EVEESLLDALLGKALAGDQMNSRIEGLFEDLDSSVEPDIIDRSELEDVDSGISVGAVSSSSAETQASDAKCKNKDAFDMSSLKKYMQYITE
notes: also called TOFU-1^N; source: E. coli BL21(DE3) derivative, purified
Question: Does B3 bind [1]?
Answer: Result: binds

Question: Does B3 bind (TOFU-6^eTUDOR V266E)?
Answer: Result: binds

B4: TOFU-1^pep (residues 82-113) (peptide, UniProt O17608 82-113, looked up)
chain: EVEESLLDALLGKALAGDQMNSRIEGLFEDLD
notes: also called first helix of the N-terminal part of TOFU-1; source: E. coli BL21(DE3) derivative, purified
Question: Does B4 bind [1]?
Answer: Result: binds

B5: TOFU-1^82-172 L88R/L92R (domain or fragment, C. elegans, UniProt O17608 82-172, looked up)
chain: EVEESLRDALRGKALAGDQMNSRIEGLFEDLDSSVEPDIIDRSELEDVDSGISVGAVSSSSAETQASDAKCKNKDAFDMSSLKKYMQYITE
notes: source: purified recombinant
Question: Does B5 bind [1]?
Answer: Result: binds

B6: TOFU-1^W-82-113 (peptide)
chain: WEVEESLLDALLGKALAGDQMNSRIEGLFEDLD
notes: tryptophan residue added at the N terminus so that the concentration can be determined; Used for ITC and crystallization; also called TOFU-1^pep; TOFU-1 peptide; source: purified (engineered TOFU-1 peptide)
Question: Which Kd [2] does the source give for B6 here?
Answer: Its Kd is roughly 20 µM.
